In experiment [1] the target is Human ST2-Fc chimera (human) (UniProt Q01638).
The target in experiment [2] is Mouse IL-33-TRAP-Fc (a fusion protein of ST2 and IL-1RAcP with an Fc tag) (mouse). The experiment is described as follows: SPR; BIAcore T200, single cycle kinetics, 25°C; mouse ST2-Fc (~200 RU) or mouse TRAP-Fc (~400 RU) captured on a Protein G chip; HpBARI injected in three-fold dilutions; 10 mM NaH2PO4 pH 7.5, 150 mM NaCl, 50 uM EDTA, 0.05% surfactant P20; 1:1 model. For orientation: In SPR one partner is held on a chip, and binding of the other changes the refractive index at the surface.

Experiment [3] has as its target Mouse ST2-Fc chimera (mouse) (UniProt P14719). The description is as above.

Chain of Mouse ST2-Fc chimera (mouse) (P14719 27-332, change not shown): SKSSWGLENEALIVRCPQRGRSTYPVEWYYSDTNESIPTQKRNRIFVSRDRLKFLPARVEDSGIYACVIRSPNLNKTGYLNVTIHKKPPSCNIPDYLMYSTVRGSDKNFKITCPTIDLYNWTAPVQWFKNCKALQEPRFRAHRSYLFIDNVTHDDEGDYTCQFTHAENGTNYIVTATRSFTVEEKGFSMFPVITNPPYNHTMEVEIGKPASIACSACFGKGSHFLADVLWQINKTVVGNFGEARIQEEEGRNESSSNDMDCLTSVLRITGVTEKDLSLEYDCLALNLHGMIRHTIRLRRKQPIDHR
Chain of Human ST2-Fc chimera (human) (Q01638 19-328, stated change not applied): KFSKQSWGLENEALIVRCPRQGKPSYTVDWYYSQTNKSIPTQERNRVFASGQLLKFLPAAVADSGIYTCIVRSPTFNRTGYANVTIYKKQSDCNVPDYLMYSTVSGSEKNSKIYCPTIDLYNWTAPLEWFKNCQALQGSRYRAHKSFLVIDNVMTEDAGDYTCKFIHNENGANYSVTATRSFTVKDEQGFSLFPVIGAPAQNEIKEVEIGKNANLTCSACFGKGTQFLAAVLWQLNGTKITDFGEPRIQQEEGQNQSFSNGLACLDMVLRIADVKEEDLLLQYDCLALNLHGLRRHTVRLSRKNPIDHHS

Consider “H. polygyrus Binds Alarmin Receptor and Inhibits (HpBARI), N-terminal tagged (natural protein)”, for which, in experiment [1], the IC50 of inhibition of IL-33-induced IFN-γ production from human PBMCs (5 ng/ml IL-12 + 0.1 ng/ml oxidation resistant human IL-33, 44 hr, ELISA); blocks human IL-33 with human ST2 is over 1000 nM. Besides, in experiment [2], the Kd worked out at 0.17 nM, the koff worked out at 0.00065 s⁻¹ and the kon turned out to be 3.9e+06 M⁻¹ s⁻¹. In experiment [3], this substance had a Kd of 0.26 nM, a koff of 0.0011 s⁻¹ and an association rate constant (kon) of 4e+06 M⁻¹ s⁻¹.
As for “HpBARI expressed with C-terminal tags (natural protein)”, the fold change of the off-rate against the N-terminal tagged construct in experiment [2] is 4 fold.

Usually Kd stands for the free concentration of one partner at which half of the binding sites on the other are occupied at equilibrium, for simple one-to-one binding. A high value points to lower affinity. The term koff denotes the first-order rate constant of dissociation. The term kon denotes the rate constant with which the complex forms.
